In the nanobody polyreactivity screen of Harvey et al. (2022):

Assay: yeast display, Sf9 membrane polyspecificity reagent, FACS + sequencing; frameworks hold sequencing errors
Method in brief: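 Synthetic nanobody libraries on Saccharomyces cerevisiae BJ5465 were galactose-induced for 36–48 hours, stained 1 hour at 4 °C with 10% biotinylated, detergent-solubilized Sf9 membrane reagent and enriched on streptavidin microbeads. FACS then separated cells into low and high (top ~1%) gates by anti-HA (expression) and streptavidin (reagent binding) fluorescence. Genes were colony-PCR amplified, MiSeq 2 × 250 sequenced and CDR-length filtered. A clone's polyreactivity label is that of its gate of origin.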

QVQLVESGGGLVQAGGSLRLSCAASGSTFRWYAMGWYRQAPGTERELVAAISVSTGSTYYADSVKGRFTISRDNAKNTVYVQMNTLKPEDTGVYYCNKVYGWRQFDYWGQGTQVTVSS
polyreactivity (PSR sort gate): high polyreactivity

QVQIVESGGGIVQAGGSLRLSCAASGFIFVFNAMGWNRKAPGKERELVAAINGGDNTNYADSVKGRFTISRDNAKNTVYLQINSLKPEDTAVYYCAAEGEDSMWTGYDYDYWGQGTQVTVSS
polyreactivity (PSR sort gate): low polyreactivity

QVQLVESGGGLVQAGGSLRLSCAASGITFEGYSMGWYRQAPGKERELVAAIRSSGTSTYYADSVKGRFTISRDNAKNTVYLQMNSLKPEDTAVYYCNRARSSSRYDYWGQGTQVTVSS
polyreactivity (PSR sort gate): low polyreactivity

QVQLVESGGGLVQAGGSLRLICAASGRIFGYNAMGWYRQEPGKERELVAAISSGGSTYYADSVKGRFTISRDHAKNTVYLQMNSLKPEDTAVYYCAAEDYPPYTTEYDYWGQGTQVTVSS
polyreactivity (PSR sort gate): low polyreactivity

QVQLVESGGGLVQAGGSLRLSCAASGSIFTNYAMGWYRQAPGKERELVATITYYADSVKGRFTISRDNAKNTVYLQMNSLKPVDTAVYYCAAVRSGPGYDYWGQGTQVTVSS
polyreactivity (PSR sort gate): low polyreactivity

QVQLVESGGGLVQAGGSLRLSCAASGRTFRYYAMGWYRQAPGKERELVATISSGGSTNYADSVKGRFTISRDNAKNTVYLQMNSLKPEDTAVYYCARYSYRGTNVRYDYWGQGTQVTVSS
polyreactivity (PSR sort gate): high polyreactivity

QVQLVESGGGLVQAGGSLRLSCAASGSTFVINDMGWYRQAPGKERELVAAITWGSGSTYYADSVKGRFTISRDNAKNTVYLQMNSLKPEDTAVYYCAADVYFGLVGYYAEYNDYWGQGTQVNVSS
polyreactivity (PSR sort gate): low polyreactivity

QVQLVESGGGLVQAGGSLRLSCAASGRIFGPYAMGWYRPATGKERELVAAISSRGSSTYYADSVKGRFTISRDNAKNTVYLQMNSLKPEDTAVYYCAARDYLAYYWGPSLYTFDYWGQGTEVTVSS
polyreactivity (PSR sort gate): high polyreactivity

QVQLVESGGGLVQAGGILRLSCAASGSTFSSNAMGWYRQAPGKERELVAAISKRGGRTYYADSVKGRFTISRDNAKNTVYLQMNSLKPEDTAVYYCAAEYWVPAWKFGYEYWGQGTQVTVSS
polyreactivity (PSR sort gate): high polyreactivity

QVQLVESGGGLVQAGGRLRLSCAASGIIFKYNAMGWYIQAPGKEREFVAAITGSGGSTYYADSVKGRFTISRDNAKNTVYLQMNSLKPEDTAVYYCARPQWRDWYGYWGQGTQVTVSS
polyreactivity (PSR sort gate): low polyreactivity

QVQLVESGGGLVQSGGSLRLSCAASGSIFIYYAMGWYRHAPGKERELVAAIDYSGDSTYYADSVKGRFTISRDNAKNTVYLQMNSLKPEDTAVYDCAVYYAGWGDYWGQGTQVTVSS
polyreactivity (PSR sort gate): low polyreactivity

QVQLVESGGGLVQARGSLRLSSAASGIIFCHYVMGWYRQAPGKERELVAAISSRGGNTYYADSVKWRFTISRDNAKNTVYFQMNSLKPEDTAVYYCNARGGARAWYFAYNYWGHGTQVTVSS
polyreactivity (PSR sort gate): high polyreactivity

QVQLVESGGGLVQAGGSLRLSCAASGSTFAYYTMGWYRQAPGKERELVAAITSGGRTTYADSVKGRFTISRDNAKNTVYLQMNSLKPEDTAVYYCAKGRKPGYYYWGQGTQVTVSS
polyreactivity (PSR sort gate): high polyreactivity

QVQLVESGGGLVQAGGSLRLSCASSGFIFHHYGMGRSRQAPGKERELVAGDTHYADSVKGRFTISRDNAKNTVYLQMNSLKPEDTAVYYCNAYWKDDFEDGPGRRGMDYWGQGTLVTVSS
polyreactivity (PSR sort gate): low polyreactivity

QVQLVESGGGLVQAGGSLRLSCAASGITFSDYAMGWYRQAPGKERELVAGITSGGSTYYADSVKGRFTISRDNAKNTVYLQMNSLKPEDTAVYYCAAVRRWKYDWGQGTQVTVSS
polyreactivity (PSR sort gate): high polyreactivity

QVQLVESGGGLVQAGGSLPLSCAASGRIFWDYDMGRYRQAHGKERELVAVITFSGDSTYYADSVKGRFTISRDNAKNTVYLQMNSLKPEDTAVYYCASARAIRQFWYVATFEYWGQGTQVTVSS
polyreactivity (PSR sort gate): low polyreactivity

QVQIVESGGGLVQAGCSLRISCAASGRTFYRYAMGWYRQAPGKEREFVAAISWRGGSTRYADSVKGRFTISRDNAKNTVYLQLNSLKPEVTAVYYCNADPQRSVSYTDQYRPVWYGYWGQGTQVTVSS
polyreactivity (PSR sort gate): high polyreactivity

QVQLVESGGGIVQAGGSLRLSSAASGSTFVYNAMGSYRQAPGKERELVASITRSGSSTYYADSVKGRFTISRDNAKNTVYLQMNSLKPEDSAVYYCAVRYYVLSYYRYYYWGQGTQVTVSS
polyreactivity (PSR sort gate): low polyreactivity

QVQLVESGGGLVQAGGSLRLSCAASGRIFSWYTMGRYRQAPGKERELVADITYSGGSTYYADSVKGRFTISRDNAKNTVYLQMNSLKPEDTAVYYCNADPRWYHFEYGYWGQGTQVTVSS
polyreactivity (PSR sort gate): high polyreactivity

QVQLVESGGGLVQAGGSLRLSCAASGRTFWTYTMGWYRQAPGKERELVAAISYSGSRTYYADSVKGRFTISRDNAKNTVYLQMNSQKPEETAVYYWATDDSDYLYRTVSAWEYDYWGQGTQVTVSS
polyreactivity (PSR sort gate): low polyreactivity

QVQLVESGGGLVQAGGSLRLSCAASGRTFRWYAMGWYRQAPGKERELVASITWSGGSTYYADSVKGRFTISRDNAKNTVYLQMNSLKPEDTAVYYCNRVLVVSMYEGNYWGQGTQVTVSS
polyreactivity (PSR sort gate): high polyreactivity

QGQHVESGGGLVQAGGRLRLSCAASGSILSGYEMGRSREAPGKERELVASITRGGSTYYADSVKGRFTISRDNANNSVYFQMNSLNPEDPAVYDCARYGSKNRRLGMDYWGQGTQVTVSS
polyreactivity (PSR sort gate): low polyreactivity

QVQLVESGGGLVKAGGSLRLSCAASGLNFNRYTMGWNRQAPGKERELVAVIDCSGGSTRYADSVKGRFTISRDNAKNTVDLQMNSLKPEDTAVYYCDYYWAQGTQVTVSS
polyreactivity (PSR sort gate): low polyreactivity

QVQLVESGGGIVQAGGSLRLSSAASGGIFPYYVMGRYRQAPGKERELVAAINSGGTTYYADSVKGRFTISRDNAKNTVYLQMNSLKPEDTAVYYCAAEAYKHGVWDYDYWGQGTQVTVSS
polyreactivity (PSR sort gate): low polyreactivity

QVQLVESGGGLVQAGGSLRLSCAASGRIFSFYAMGWYRQAPGKERELVATISDGGATTYYADSVKGRFTISRDNAKNTVYLQMNSLKPEDTAVYYCNARRESYYQRYRVDYWGQGTQVTVSS
polyreactivity (PSR sort gate): low polyreactivity

QVELVESGGGLVQAGGSLRLSCAASGFTFRYYAMGWYRQAPGKERELVAAINASGGRTYYADSVKGRFTISRDNAKNTVYLQMNSLKPEDTAVYYCAARSIRQHYGMDYWGQGTQVTVSS
polyreactivity (PSR sort gate): high polyreactivity

QVQLVESGGGLVQAGGSLRLSCAASGRTFRYYDMGWYRQAPGKEREFVAAITWRGGSTYYADSVKGRFTISRDYAKNTVYLQMNSLTPEDTAVYYCATDSLRLYGGKRDLYYWGQGTQVTVSS
polyreactivity (PSR sort gate): low polyreactivity

QVQLVESGGGLVQAGGSLLLICAASGSTFYLNAMGWYRQAPGKERELVAAITGRSGSTYYADSVKVRFTISRDNAKNTVYLQMNSLKPEDTAVYYCAADYSPWRSDFDYWGQGTQVTVSS
polyreactivity (PSR sort gate): low polyreactivity

QVQLVESGGGLVQAGGSLRLSCAASGSIFVPYAMGWYRQAPGKERELVAAITRSSGSTYYADSVKGRFTISRDNAKNTVYVQMNSLKPQDSAVYYCAADFLLEFVYWGQGTQLTVSS
polyreactivity (PSR sort gate): low polyreactivity

QVQLVESGGGLVQAGGSLRLSCAASGYIFGYNAMGWYRQAPGKERELVAAINYSGTRTYYADSVKGRFTISRDNAKNTVYLQKNSLKPEDTAVYYCNAVGQLQYVSSDDYWGQGTQVTVSS
polyreactivity (PSR sort gate): high polyreactivity

QVQLVESGGGLVQAGGSLRLSCAASGSIIHYTMGWYRQAPGKERELVAAISKSGGSTYYADSVKGRFTISRDNAKNTVYLQMNSLKPEDTAVYYCAAVGYYAWTFGYDYWGQGTQVTVSS
polyreactivity (PSR sort gate): high polyreactivity

QVQLVESGGGLVQAGGSLRLSCAASGITFYKYVMGWYRQAPGKERELVAAISSVGSTYYADSVKGRFTISRDNAKNTVYLQMNSLKPEDTAVYYCNARVYYSTTRYYVRVDYWGQGTQVTVSS
polyreactivity (PSR sort gate): high polyreactivity

QVQLVESGVGLVQAGGSLRLSCAASGSIFEDYVMGWYRQAPGKERELVADITSGGTTYYADSVKGRFTISRDNAKNTVYLQMNSLKPEDTAVYYCAAEVDWVPFLLDYWGQGTQVTVSS
polyreactivity (PSR sort gate): low polyreactivity

HVQLVESGGGLVQAGGSLRLSCAASGSTFAGNAMGWYRQAPGKERELVAAITFSGGRTDYADSVKGRFTISRDNAKNTVYLQMNSLKPEDTAVYYCAAPADDTVHYQNYYWGQGTQVTVSS
polyreactivity (PSR sort gate): low polyreactivity

QVQLVESGGGLVQAGGSLRLSCAASGRTFWSNDMGWYRQAPGKEREFVAVISRSGSTTYYADSVKGRFTISRDNAKNTVYLQMNSRKPEDTAVYYCAADRVRSYFSRYYSTPLDYYLGQGTQVTVSS
polyreactivity (PSR sort gate): high polyreactivity

QVQLVESGGGLVQAGGSLRLSCAASGSIFYIYAMGWYRQAPGKERELVAAINWSGGDTYYADSVKGRFTISRDNAKNTVYLQMNSLKPEDTAVYYCAALLDSEYEYWGQGTQVTVSS
polyreactivity (PSR sort gate): high polyreactivity

QVQLVESGGGLVHAGGSLRLSCAASGSIFKPYVMGWYRQAPGKERELVAAITTSGVRTYYADSVKGRFTISRDNAKNTVYLQMNSLKPEDTAVYYCATRRWSWPQFRTGDYWGQGTQVTVSS
polyreactivity (PSR sort gate): high polyreactivity

QVQLVESGGGLVQAGGSLRLSCAASGSTFHYYVMRWYRQAPGKERELVAAIRRSGGTTYYADSVKGRFTISRDNAKNTVYLQMNSLKPEDTAVYYCAAPGWYGGYPSYYYWGQGTQVSVSS
polyreactivity (PSR sort gate): low polyreactivity

QVQLVESGGGLVQAGGSLRLSCAASGRILWSYAMGWYRQAPGKERELVAAITSGTRTNYADSVKGRFTISRDNAKNTVYLQMNSLKPEDTAVYYCAADRYWPAFYRTRGWDYYYWGQGTQVTVSS
polyreactivity (PSR sort gate): high polyreactivity

QVQLVESGGGLVQAGGSLRLSCAASGTTISAYDMGRYRQAPGKEREMVAAITWIGGNTYYADSVKGRFTISRDNAKNTVYLQMNSLKPEDTAVYYCAAEEVPYDRDMDYWGQGTKVTVSS
polyreactivity (PSR sort gate): low polyreactivity

QVQLVEEGGGLVQAGGTRRLSCAASGSTFTVYVMGWYRQAPGQERELVAAINLSGGRTYYADSVKGRFTISRDNAKNTVYLQMNSLKPEDTAVYYCAADGSTWGDYRTYGYWGQGTLVTVSS
polyreactivity (PSR sort gate): low polyreactivity

QVHLVESGGGLVLAGGSLRLSFAASGSTFDSYAMRCYRQQPGKQREFVAVINSGGSTNYADSVNGRFTISRDYSKNTVYLQMNSLKPEDTAVYYCAAEERYRWHYGGWGYWYDYWGQGTQVTVSS
polyreactivity (PSR sort gate): low polyreactivity

QVQLVESGGGLVQAGGSLRLSCAASGFIFSKNVMGWYRQATGKERELVALINRSGGTTYYADSVKGRFTISRDNAKNTVYLQMNSLKPEDTAVYYCAARRYGYTSITWYDYLGQGTQVTVSS
polyreactivity (PSR sort gate): high polyreactivity
